{"source": "paper doi:10.1101/2020.01.16.909549", "binders": {"B1": {"name": "CGC/GCG 23-bp crystal DNA (CH9c) (dsDNA)", "DNA 1": "TTGACTCGACATCGCGCGCTACA", "DNA 2": "ATGTAGCGCGCGATGTCGAGTCA", "modifications": "disulfide (cystamine)-tethered dG* at top strand position 8, from 2-F-dI"}}, "biological_target": "T1, Rad4 Δβ-hairpin3 crosslinking construct (<SC41B>);Rad23 (crystal) (Saccharomyces cerevisiae?;Saccharomyces …, UniProt P14736;P32628 101-632;230-398, V131C;C132S;del599-605|)", "T1 sequence 1": "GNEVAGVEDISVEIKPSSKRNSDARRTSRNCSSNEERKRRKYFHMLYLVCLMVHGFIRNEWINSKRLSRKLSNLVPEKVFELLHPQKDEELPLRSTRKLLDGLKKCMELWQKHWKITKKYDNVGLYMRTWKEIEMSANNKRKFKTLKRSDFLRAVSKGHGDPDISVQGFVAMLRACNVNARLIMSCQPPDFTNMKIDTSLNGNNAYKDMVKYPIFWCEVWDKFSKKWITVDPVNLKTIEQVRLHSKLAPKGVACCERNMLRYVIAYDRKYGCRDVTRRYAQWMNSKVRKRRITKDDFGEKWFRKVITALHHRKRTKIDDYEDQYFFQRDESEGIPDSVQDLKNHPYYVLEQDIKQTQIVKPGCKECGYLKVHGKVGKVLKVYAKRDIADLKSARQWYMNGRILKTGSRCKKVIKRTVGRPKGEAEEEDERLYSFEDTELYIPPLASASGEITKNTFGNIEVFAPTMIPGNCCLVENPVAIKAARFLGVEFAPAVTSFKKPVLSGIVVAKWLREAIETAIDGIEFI", "T1 sequence 2": "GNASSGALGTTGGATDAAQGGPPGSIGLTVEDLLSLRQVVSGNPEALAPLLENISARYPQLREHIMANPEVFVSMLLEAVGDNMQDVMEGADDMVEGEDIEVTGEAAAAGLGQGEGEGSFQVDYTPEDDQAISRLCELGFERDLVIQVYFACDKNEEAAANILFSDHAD", "assay": "X-ray crystallography"}
{"binder": "B1", "values": [{"measurement": "binding result", "value": "binds"}]}
